These results are taken from publication PMC10514967, “The terpene synthase (TPS) gene family in kiwifruit shows high functional redundancy and a subset of TPS likely fulfil overlapping functions in fruit flavour, floral bouquet and defence” (Molecular Horticulture, 2023).

One series concerns AcLIS/NES. Put plainly: SPME GC-MS of major terpene product, Michaelis-Menten fit. In kind it is biochemical, Actinidia chinensis var. chinensis. The conditions noted are these: 50 mM Bis-Tris propane pH 7.5, 10 mM MgCl2, 30 °C. From the text:
SPME GC-MS of major terpene product, Michaelis-Menten fit on AcLIS/NES

Substrate in series [1]: CC(C)=CCC/C(C)=C/CC/C(C)=C/CO[P@@](=O)(O)OP(=O)(O)O
The description is as above. In kind it is biochemical, Actinidia chinensis. Conditions: 50 mM Bis-Tris propane pH 7.5, 10 mM MgCl2, 30 °C. From the text: SPME GC-MS of major terpene product, Michaelis-Menten fit on AcBCS

Broadly, the Km is the concentration of substrate that gives half-maximal velocity. On to `CC(C)=CCC/C(C)=C/CC/C(C)=C/COP(=O)(O)OP(=O)(O)O` [FDP], for which, in the series with AcLIS/NES, the Km was 7.43 ± 1.25 µM.
On the same count and under the same terms, next, `CC(C)=CCC/C(C)=C/COP(=O)(O)OP(=O)(O)O` [GDP]: 30.9 ± 3.81 µM.

B1: AcBCS (Actinidia chinensis var. chinensis) (protein)
chain: MAISCATALPIPTVSTKITMEPLVTRRSANYHPSIWGDHFLAYSSLPTEVDVNMEQEQLHQLKQKVIKMLMAAADKPSQMLNLIDRIQRLGVSYHFKTEIEAALKHIYESDHHFDDLYTVALFFRLLRQQGFPVSCEVFNKFKNNQGKFQECLIGDVVGILCLYEATHLRVRGEEILDEALSFTTTHLESMVPNLSNPVAEHAIHALNQPIHKGLTRLDARQYISFYEQDDSHNKDLLNFAKLDFNLLQKLHQRELCEITRWWKDLDFAKKLPFARDRLVESYFWVLGVYFEPQYWLARRILTKVIAMSSVIDDIYDVYGTLEELALFTDAIERWEISSLDKLPEYMKLCYQALLDIYSTIDEEMAKQGGSYRVYYAKSEMKNLVRGYFEEAKWFHQGYVPSMEEYMQVALLSSGYKMVTTTSFVGMGELATKEAFDWVSSYPLIVEAVSAIARLTDDIVGHKFEQQRGHVASAVECYMKQNGATEEEAIVELYEQVTNAWKDMNAECLYSTKVPMPLLVRVLNLARVINVLYKDEDSYTHSGTRTKNFVTSVLIDSVPIN
One may read the Vmax as the top rate of the reaction or transport when substrate is in excess. A word on the kcat: it is the number of substrate molecules converted per active site and unit of time at saturation. The kcat/Km is the turnover number divided by the Michaelis constant. On to B1, for which, in series [1], the Km stood at 1.54 ± 0.54 µM, the Vmax turned out to be 0.013 µM/min, the kcat worked out at 0.0087 ± 0.002 s⁻¹ and the kcat/Km came out at 5870 ± 1100 M⁻¹ s⁻¹.
